In patent US6521594:
Each block holds one binder with its values, some of them ahead of it. Starred links: 1 amine or outer side, 2 acyl side, 3 side chain; linkers in the order of their positions; H or OH if unused. Positions of bridges follow the written chain, without caps; N, C: chain ends. Non-standard residues stand in square brackets, D forms with d. Primed or numbered codes have the meaning given here. No end group written: not given here. Pmc′ = pentamethylenecysteine (from Boc-D/L-Pmc), O=C(C(N[*:1])C1(S[*:3])CCCCC1)[*:2]; Cys(β,β-pentamethylene) = O=C([C@@H](N[*:1])C1(S[*:3])CCCCC1)[*:2]; Tyr(Me)″ = COc1ccc(C[C@H](N[*:1])C(=O)[*:2])cc1; 2Nal = N[C@@H](Cc1ccc2ccccc2c1)C(=O)O; Pen = CC(C)(S)[C@H](N)C(=O)O

Experiments:
[1] = molecular target: Fibronectin receptor (human), P08648; experiment: ELISA; settings: modification not given
[2] = molecular target: Platelet glycoprotein IIb/IIIa (human), P08514; experiment: ELISA; settings: modification not given
[3] = molecular target: Platelet glycoprotein IIb/IIIa (human), P08514; experiment: cell-based or functional assay
[4] = molecular target: Platelet glycoprotein IIb/IIIa (human), P08514; experiment: competition, ELISA or liposome assay
[5] = molecular target: T1, Vitronectin receptor (human), P06756; experiment: competition, ELISA or liposome assay, vitronectin coated
T1 chain 1: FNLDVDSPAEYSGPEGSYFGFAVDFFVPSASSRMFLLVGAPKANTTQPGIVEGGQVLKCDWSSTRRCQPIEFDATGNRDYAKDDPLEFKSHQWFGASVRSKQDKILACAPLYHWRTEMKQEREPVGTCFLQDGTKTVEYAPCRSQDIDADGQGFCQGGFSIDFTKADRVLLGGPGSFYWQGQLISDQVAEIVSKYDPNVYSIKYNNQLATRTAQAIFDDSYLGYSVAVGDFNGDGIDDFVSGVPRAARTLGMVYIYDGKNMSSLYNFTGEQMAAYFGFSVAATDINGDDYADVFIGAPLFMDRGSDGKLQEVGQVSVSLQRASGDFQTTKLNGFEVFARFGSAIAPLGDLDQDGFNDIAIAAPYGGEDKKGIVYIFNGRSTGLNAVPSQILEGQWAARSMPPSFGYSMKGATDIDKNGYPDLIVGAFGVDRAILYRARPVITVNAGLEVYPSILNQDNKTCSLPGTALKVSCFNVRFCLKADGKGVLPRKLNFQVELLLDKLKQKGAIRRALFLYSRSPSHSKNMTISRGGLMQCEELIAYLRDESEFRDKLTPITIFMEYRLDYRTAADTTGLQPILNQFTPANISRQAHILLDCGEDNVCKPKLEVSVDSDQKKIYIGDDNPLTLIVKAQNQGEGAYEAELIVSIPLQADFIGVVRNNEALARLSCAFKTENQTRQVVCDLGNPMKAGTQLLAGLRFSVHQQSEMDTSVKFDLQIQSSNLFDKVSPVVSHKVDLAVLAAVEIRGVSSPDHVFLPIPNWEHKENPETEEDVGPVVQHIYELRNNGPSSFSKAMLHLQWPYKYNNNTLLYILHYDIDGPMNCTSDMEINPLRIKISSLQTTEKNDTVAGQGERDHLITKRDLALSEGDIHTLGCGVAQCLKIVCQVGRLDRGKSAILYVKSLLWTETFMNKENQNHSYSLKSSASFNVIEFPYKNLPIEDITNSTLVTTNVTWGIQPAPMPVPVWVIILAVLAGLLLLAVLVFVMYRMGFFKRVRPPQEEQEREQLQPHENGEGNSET
T1 chain 2: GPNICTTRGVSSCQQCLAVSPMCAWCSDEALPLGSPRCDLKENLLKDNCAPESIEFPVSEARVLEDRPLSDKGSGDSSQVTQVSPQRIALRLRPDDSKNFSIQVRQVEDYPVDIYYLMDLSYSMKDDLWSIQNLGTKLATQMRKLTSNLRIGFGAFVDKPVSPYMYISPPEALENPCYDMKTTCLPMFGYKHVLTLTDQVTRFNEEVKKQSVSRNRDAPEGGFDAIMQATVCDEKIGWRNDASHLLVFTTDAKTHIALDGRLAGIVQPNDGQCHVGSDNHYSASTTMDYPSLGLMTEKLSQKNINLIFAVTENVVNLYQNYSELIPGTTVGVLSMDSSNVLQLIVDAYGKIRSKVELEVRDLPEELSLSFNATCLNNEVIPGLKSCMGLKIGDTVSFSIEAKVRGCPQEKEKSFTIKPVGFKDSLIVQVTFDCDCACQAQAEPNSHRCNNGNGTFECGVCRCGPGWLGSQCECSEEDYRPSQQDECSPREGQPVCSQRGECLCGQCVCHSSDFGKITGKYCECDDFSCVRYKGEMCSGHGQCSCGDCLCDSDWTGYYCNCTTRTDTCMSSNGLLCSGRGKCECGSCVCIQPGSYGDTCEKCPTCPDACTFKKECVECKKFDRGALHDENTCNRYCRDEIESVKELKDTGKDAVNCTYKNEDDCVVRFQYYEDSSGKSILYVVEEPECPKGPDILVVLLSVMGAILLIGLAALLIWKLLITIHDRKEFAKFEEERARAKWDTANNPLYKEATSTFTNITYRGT

Fibronectin receptor (human), P08648, sequence (P08648 42-1049, chain 1 of 2): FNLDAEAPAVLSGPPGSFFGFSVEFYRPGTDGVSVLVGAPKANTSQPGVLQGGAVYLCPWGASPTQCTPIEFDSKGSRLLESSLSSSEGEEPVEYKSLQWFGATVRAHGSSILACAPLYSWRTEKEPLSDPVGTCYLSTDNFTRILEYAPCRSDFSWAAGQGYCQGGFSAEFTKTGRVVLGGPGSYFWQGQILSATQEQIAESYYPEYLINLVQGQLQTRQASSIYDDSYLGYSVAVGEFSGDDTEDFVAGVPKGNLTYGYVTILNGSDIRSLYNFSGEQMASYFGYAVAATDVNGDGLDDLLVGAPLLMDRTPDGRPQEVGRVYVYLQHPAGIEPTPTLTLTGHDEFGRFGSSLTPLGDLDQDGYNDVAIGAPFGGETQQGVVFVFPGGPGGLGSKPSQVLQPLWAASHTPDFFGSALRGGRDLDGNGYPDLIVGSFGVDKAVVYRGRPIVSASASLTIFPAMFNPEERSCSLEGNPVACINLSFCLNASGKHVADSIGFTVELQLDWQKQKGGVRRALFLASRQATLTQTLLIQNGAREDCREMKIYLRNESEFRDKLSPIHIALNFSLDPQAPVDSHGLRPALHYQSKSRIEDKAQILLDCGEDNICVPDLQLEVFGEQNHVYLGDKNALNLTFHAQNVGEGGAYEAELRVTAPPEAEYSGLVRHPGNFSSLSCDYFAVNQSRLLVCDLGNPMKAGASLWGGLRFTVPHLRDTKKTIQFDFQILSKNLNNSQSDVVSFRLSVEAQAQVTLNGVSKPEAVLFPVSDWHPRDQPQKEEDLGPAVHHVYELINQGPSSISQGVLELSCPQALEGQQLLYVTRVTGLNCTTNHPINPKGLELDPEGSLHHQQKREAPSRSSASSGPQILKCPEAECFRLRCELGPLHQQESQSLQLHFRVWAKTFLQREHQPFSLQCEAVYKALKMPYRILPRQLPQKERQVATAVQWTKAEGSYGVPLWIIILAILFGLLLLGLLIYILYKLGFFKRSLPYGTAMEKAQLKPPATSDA
Fibronectin receptor (human), P08648, sequence (chain, as listed by the source, chain 2 of 2): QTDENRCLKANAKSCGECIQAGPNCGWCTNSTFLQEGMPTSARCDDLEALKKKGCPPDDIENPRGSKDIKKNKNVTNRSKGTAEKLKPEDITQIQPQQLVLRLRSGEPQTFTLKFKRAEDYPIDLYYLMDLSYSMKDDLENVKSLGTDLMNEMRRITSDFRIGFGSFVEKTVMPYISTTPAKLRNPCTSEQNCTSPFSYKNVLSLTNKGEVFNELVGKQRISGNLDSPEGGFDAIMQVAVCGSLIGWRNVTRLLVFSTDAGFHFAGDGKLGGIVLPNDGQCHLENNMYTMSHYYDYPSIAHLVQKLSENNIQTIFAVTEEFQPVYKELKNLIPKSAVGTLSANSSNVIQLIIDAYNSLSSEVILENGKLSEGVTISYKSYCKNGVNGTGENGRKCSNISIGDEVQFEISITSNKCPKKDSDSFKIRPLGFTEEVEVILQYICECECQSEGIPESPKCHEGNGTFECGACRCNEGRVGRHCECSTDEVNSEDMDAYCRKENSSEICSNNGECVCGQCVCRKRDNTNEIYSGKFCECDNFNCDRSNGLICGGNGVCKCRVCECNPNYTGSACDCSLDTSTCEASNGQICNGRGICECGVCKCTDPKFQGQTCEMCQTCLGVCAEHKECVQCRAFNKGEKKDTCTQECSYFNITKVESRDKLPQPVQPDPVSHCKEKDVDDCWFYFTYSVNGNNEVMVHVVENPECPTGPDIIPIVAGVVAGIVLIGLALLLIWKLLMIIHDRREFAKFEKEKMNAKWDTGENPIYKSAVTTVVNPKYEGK

B1: R(Pmc)G(DY)RGD(Y-OMe)RCR (peptide)
chain: R[Cys(β,β-pentamethylene)]GXRGD[Tyr(Me)″]RCR
modifications: disulfide 2-10; not fully specified (residue 4); printed as R(Pmc)G(DY)RGD(Y-OMe)RCR
IC50 [1]: 10000 nM

B3: R(Pmc)GHRGD(2-Nal)RCR (peptide)
chain: R[Cys(β,β-pentamethylene)]GHRGD[2Nal]RCR
modifications: disulfide 2-10
IC50 [2]: 70 nM

B4: G(Pen)… (peptide)
peptide: G[Pen]IARGDWNCA
modifications: disulfide 2-10
IC50, ADP-Stimulated Aggregation [3]: 1200 nM
IC50 [4]: 10 nM
IC50 [5]: 40 nM

Continued, values first:

IC50 [1]: > 10000 nM
B2: R(Pmc)SHRGD(Y-OMe)RCR (peptide)
chain: R[Pmc′]SHRGD[Y‑OMe]RCR
modifications: disulfide 2-10

IC50 [2]: 70 nM
B5: R(Pmc)RHRGD(Y-OMe)RCR (peptide)
chain: R[Pmc′]RHRGD[Y‑OMe]RCR
modifications: disulfide 2-10
